Measurements: paper PMC7447783, “Cryo-EM structure of trimeric Mycobacterium smegmatis succinate dehydrogenase with a membrane-anchor SdhF” (Nature Communications, 2020)

Experiments:
[1] = target: T1, Sdh2 (trimeric diheme succinate:menaquinone oxidoreductase, complex II) (Mycolicibacterium smegmatis, UniProt A0QT08+A0QT09+A0QT10); test: cryo-EM structure, […] Å; assay type: binding; settings: co-purified; SdhA subunit
T1 construct: gene sdhA; SdhD with C-terminal 10xHis tag (pVV16) expressed in M. smegmatis; digitonin-solubilised, Ni-NTA and gel filtration; trimer of SdhABCDF; SdhF 3 kDa; with Succinate dehydrogenase iron-sulfur subunit; Succinate dehydrogenase membrane-anchor subunit SdhF

[2] = target: Mycobacterium smegmatis succinate dehydrogenase Sdh2 (trimer of SdhA-SdhB-SdhC-SdhD-SdhF protomers) (M. smegmatis) (UniProt A0QT09); test: cryo-EM structure; digitonin-solubilised Sdh2 complex co-purified from M. smegmatis membranes, 5 mg/mL, 20 mM MOPS pH 7.4, 100 mM NaCl, 0.1% digitonin; 2.8 Å
[3] = target: the molecule itself; test: as above

Q: With `Cc1cc2nc3c(=O)[nH]c(=O)nc-3n(C[C@H](O)[C@H](O)[C@H](O)COP(=O)(O)OP(=O)(O)OC[C@H]3O[C@@H](n4cnc5c(N)ncnc54)[C@H](O)[C@@H]3O)c2cc1C` [FAD] as the molecule, how does the “cryo-EM structure, 2.8 Å” value [1] read?
A: All the prosthetic groups (FAD, [2Fe-2S], [4Fe-4S], [3Fe-4S], and two b-type heme groups)

Q: For “Mycobacterium smegmatis succinate dehydrogenase Sdh2 (trimer of SdhA-SdhB-SdhC-SdhD-SdhF protomers) (from UniProt A0QT09 1-156) (complex)”, which stoichiometry N [2] is on record?
A: 3

B1: SdhD subunit of M. smegmatis Sdh2 (membrane-anchored protein) with C-terminal 10x His tag (natural protein)
chain: MSAPGAGESRLGRPAPVMEREHDRPAALDHPRAPRKPRGIPYFEKYAWLFMRFSGIALVFLALGHLFIMLMWQDGVYRIDFNYVAERWASPFWQIWDMALLWLAMIHGANGMRTIIGDYARKNVTKFWLNSLLLLATGFTLVLGSYVLVTFDANIS
notes: SdhD (Sdh2D), membrane-anchor subunit of M. smegmatis Sdh2 with three transmembrane helices (IV-VI), gene MSMEG_1671; also called Sdh2D; subunit D; source: M. smegmatis mc2 51, expressed from pVV16; digitonin extract of membranes, purified with the complex (Ni-NTA, Superdex 200); not shown: His10, C-terminal, kept
Q: Does B1 bind [3]?
A: binds
